Laboratory results: patent US9834772, “Aptamers bound human serum albumin and glycated human serum albumin” (National Science & Technology Development Agency)

Tests used:
Settings in all cases: label: 5' biotin
[1] = target: T1, Human serum albumin (HSA) (Homo sapiens, UniProt P02768 P02768:25-609); assay: ELONA; indirect ELISA: + at 200, 2, 0.2 nM, - at 20 nM; PBST, room temperature
Text: The binding assay of selected aptamers against HSA and aptamers against GHSA is deteimined by using Indirect Enzyme-Linked Immunosorbent Assay (Indirect ELISA) and Direct Enzyme-Linked Immunosorbent Assay (Direct ELISA), as described below. 3.1. Indirect Enzyme-Linked Immunosorbent Assay (Indirect ELISA) The principle of this experiment is based on two antibodies, which are antibodies against 5' biotinylated aptamer and antibodies against the first antibody. The second antibody is conjugated with horseradish peroxidase enzyme (HRP), which can changes TMB color from blue to be yellow. The yellow color intensity is direct indicator for the target protein concentration. Random selected aptamers in Table 5 and Table 6 were chosen for analysis using this method. Indirect ELISA Protocol Step 1: 0.8 μg of BSA or HSA or GHSA was added in 50 μl of 0.05 M carbonate buffer in 96 well plate (50 μL/well) and incubated at 4° C. for 1 night. In this process, all proteins will be coated on the 96 well plate.
Step 2: The reaction from step 1 was washed 5 times with Phosphate buffer (PBST) (0.05% Tween) using ELISA washing machine (Fluido 2) and tapped for 3-5 times.
Step 8: 50 μL of 0.6 M H_2SO_4 was added in the reaction and immediately measured the $OD_{450\ nm}$ using spectrophotometer.

[2] = target: Glycated human serum albumin (GHSA) (Homo sapiens, UniProt P02768 P02768:25-609); assay: EMSA; unit as printed (umole); 25 C 1 h; also EMSA positive in Table 6 and direct ELISA positive
Sequence of Glycated human serum albumin (GHSA) (P02768 25-609, one chain of several): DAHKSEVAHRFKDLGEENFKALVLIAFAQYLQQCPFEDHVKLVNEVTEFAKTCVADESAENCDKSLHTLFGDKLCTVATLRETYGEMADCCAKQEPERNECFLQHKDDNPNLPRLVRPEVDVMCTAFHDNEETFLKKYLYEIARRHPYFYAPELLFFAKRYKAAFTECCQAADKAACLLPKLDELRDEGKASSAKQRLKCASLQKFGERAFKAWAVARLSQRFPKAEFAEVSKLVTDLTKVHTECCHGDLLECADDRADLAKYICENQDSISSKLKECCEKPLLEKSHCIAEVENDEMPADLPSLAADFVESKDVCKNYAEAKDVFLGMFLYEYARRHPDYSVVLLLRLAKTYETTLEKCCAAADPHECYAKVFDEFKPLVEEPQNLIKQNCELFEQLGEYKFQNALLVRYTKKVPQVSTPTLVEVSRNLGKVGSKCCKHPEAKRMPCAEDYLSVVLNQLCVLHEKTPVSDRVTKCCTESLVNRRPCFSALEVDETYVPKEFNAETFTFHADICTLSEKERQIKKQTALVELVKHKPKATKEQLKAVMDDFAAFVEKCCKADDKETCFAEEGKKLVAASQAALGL
Procedure: Step 5: Aptamer analysis using Phototope®-Star Detection Kit (New England Biolabs) Nylon membrane was removed from the transferring set up and put in the clear plastic container containing solution A (5% Sodium Dodecyl Sulfate (SDS), 125 mM NaCl, 25 mM Sodium Phosphate, pH 7.5). The system was incubated at room temperature for 5 minutes with gentle shaking. The solution was discarded and 10 µL of streptavidin in 20 mL of solution A was added in the reaction container and incubated at room temperature for 5 minutes with gentle shaking. The solution was discarded. Then the membrane was washed 3 times by using solution B (1:10 of solution A in steriled water) with gentle shaking for 5 min. Then the washing buffer was discarded before the next round washing. […] in 20 mL of solution A was added in the container. Then the system was incubated at room temperature for 5 minutes with gentle shaking. Then the solution is discarded. The membrane was washed 3 times by solution C (10 mM Tris HCl, 10 mM NaCl, 1 mM […], pH 9.50) with gentle shaking and then solution is discarded. […]
The quantitative binding of G8 aptamer from this invention and clone 9 aptamer from the previous study were analyzed by electromobility shifted assay (EMSA) and results were compared. […]

[3] = target: T1, Human serum albumin (HSA); assay: EMSA; 25 C 1 h
Procedure: (§1) After that the reaction was incubated at 4° C. for 1 minutes before use. Step 2: 1 µL HSA was mixed with 9 µL of aptamer against HSA and 1 µL of 0.4 µg/µL GHSA was mixed with 9 µL of aptamer against GHSA. Step 3: The reaction from step 2 was incubated at 25° C. for 1 hour and analyzed on 8% polyacrylamide gel at 100 V for 30 minutes. Step 4: Aptamers on the polyacrylamide gel from step 3 were transferred to nylon membrane (Amersham Hybond-N+; GE Healthcare). Classical DNA/RNA transferring method was used. The transferring buffer was SSC (150 mM […] and 15 mM Sodium citrate, pH 7.0) and incubation time was 12 h. Step 5: Aptamer analysis using Phototope®-Star Detection Kit (New England Biolabs) Nylon membrane was removed from the transferring set up and put in the clear plastic container containing solution A (5% Sodium Dodecyl Sulfate (SDS), 125 mM NaCl, 25 mM Sodium Phosphate, pH 7.5). The system was incubated at room temperature for 5 minutes with gentle shaking. The solution was discarded and 10 µL of streptavidin in 20 mL of solution A was added in the reaction container and incubated at room temperature for 5 minutes with gentle shaking. The solution was discarded. Then the membrane was washed 3 times by using solution B (1:10 of solution A in steriled water) with gentle shaking for 5 min. […]

[4] = target: T1, Human serum albumin (HSA); assay: EMSA; 25 C 1 h; indirect ELISA also + at 0.2-200 nM (Table 9)
Procedure: as §1

T1 sequence (P02768 25-609, one chain of several): as above

B1: clone 9 (ssDNA)
DNA: TAACTCACTCCATACTCACTTGCTGATTCGCCAACAACACACCCTTAAACAGTCCC
binding result [1]: binds

B2: G8 (ssDNA)
DNA: GGTGCGGTTCGTGCGGTTGTAGTACTCGTGGCCGATAGAGGTAGTTTCG
binding result [2]: binds

B3: H8 (ssDNA)
DNA: ATACCAGCTTATTCAATTCCCCCGGCTTTGGTTTAGAGGTAGTTGCTCATTACTTGTACGCTCCGGATGAGATAGTAAGTGCAATCT
binding result [3]: binds

B4: H14 (ssDNA)
DNA: ATACCAGCTTATTCAATTCGCGCACATATACAGGGCTTTACCAGCGGGGAAGGTTAGCGACGCGAGGGGGAGATAGTAAGTGCAATCT
binding result [4]: binds
